Earlier results on one substance are cited in paper PMC4166121.

One may read the Kd as the free concentration of one partner at which half of the binding sites on the other are occupied at equilibrium, for simple one-to-one binding.

For the data set, the target named is p38 MAPK (UniProt Q16539).
p38 MAPK, sequence (Q16539 2-360): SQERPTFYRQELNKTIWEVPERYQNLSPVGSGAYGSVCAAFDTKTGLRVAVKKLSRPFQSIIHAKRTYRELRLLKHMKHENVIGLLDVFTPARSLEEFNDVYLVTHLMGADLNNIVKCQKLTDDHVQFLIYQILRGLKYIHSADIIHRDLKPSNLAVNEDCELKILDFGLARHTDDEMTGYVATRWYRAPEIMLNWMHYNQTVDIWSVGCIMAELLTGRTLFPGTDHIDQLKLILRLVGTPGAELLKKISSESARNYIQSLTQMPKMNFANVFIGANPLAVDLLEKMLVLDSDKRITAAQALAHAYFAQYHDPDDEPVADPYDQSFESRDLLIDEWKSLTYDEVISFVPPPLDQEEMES

eNOS, sequence (P29474 2-1203): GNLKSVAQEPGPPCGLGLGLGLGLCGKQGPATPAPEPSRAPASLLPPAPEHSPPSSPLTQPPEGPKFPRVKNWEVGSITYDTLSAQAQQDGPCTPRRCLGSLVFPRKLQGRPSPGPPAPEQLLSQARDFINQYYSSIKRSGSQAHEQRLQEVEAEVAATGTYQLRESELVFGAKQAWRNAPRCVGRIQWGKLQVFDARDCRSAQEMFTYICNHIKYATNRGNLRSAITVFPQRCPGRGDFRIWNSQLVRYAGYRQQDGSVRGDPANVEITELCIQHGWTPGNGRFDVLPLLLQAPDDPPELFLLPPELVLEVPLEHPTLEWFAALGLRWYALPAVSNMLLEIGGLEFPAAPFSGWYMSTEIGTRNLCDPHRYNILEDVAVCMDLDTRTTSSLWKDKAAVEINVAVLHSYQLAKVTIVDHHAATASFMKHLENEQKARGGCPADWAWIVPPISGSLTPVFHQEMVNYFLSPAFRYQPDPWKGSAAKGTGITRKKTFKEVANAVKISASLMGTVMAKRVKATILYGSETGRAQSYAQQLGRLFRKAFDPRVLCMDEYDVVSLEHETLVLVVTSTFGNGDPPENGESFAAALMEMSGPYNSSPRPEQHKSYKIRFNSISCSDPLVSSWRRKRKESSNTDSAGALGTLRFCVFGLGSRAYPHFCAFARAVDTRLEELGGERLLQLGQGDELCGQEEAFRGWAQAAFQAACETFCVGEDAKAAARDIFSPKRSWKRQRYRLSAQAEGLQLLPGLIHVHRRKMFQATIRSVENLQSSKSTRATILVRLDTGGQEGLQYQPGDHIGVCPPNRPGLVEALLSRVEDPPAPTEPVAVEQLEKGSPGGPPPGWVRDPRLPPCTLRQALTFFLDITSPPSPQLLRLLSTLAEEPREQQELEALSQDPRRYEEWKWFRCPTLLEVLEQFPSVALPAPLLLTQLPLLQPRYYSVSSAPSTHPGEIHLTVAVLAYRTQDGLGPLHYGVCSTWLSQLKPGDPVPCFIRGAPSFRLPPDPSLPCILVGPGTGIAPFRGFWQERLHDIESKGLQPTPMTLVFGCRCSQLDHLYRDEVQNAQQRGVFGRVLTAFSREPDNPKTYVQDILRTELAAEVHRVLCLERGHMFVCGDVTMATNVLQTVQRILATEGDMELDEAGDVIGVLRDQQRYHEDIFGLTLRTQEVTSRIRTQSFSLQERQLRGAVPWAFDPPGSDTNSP

With eNOS (from UniProt P29474), the Kd is 0.08 nM.
